Test results as given in patent US20120020961A1 (INSTITUT NATIONAL DE LA SANTE ET DE LA RECHERCHE MEDICALE …, published 2012).
Several values for one entry are separate records, joined by “and”; a condition that tells them apart may be missing. Equal values may be shown once.

T1: mature human progastrin (human, UniProt P01350 22-101)
T1 construct: In the spheroid assays the progastrin is made by the human liver cancer cells themselves; also called hPG; PG
T1 sequence: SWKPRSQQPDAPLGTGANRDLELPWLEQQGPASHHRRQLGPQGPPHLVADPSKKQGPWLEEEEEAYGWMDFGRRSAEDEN


Molecular target: T1, mature human progastrin
Assay: measured KD; method not named at the table (Example 4 describes Proteon SPR, antibody captured by anti-mouse IgG, hPG injected)

Row | Binder | Kd
1 | murine anti-hPG MAb19 (antibody, V domains shown, Murine N-terminal anti-hPG monoclonal antibody, immunogen N2; also called hybridoma 1B3B4F11) VH: DVQLQESGPGLVKPSQSLSLTCTVTGYSITSDYAWNWIRQFPGNKLEWMGYISFSGYTSYNPSLKSRISVTRDTSRNQFFLQLTSVTTEDTATYYCAREVNYGDSYHFDYWGQGTIVTVSS VL: QLALTQSSSASFSLGASAKLTCTLSSQHRTYTIEWYQQQSLKPPKYVMEVKKDGSHSTGHGIPDRFSGSSSGADRYLSISNIQPEDEAIYICGVGDAIKGQSVFVFGGGTKVTVL | 0.7 nM and 0.779 nM
2 | murine anti-hPG MAb3 (antibody, V domains shown, Murine N-terminal anti-hPG monoclonal antibody, immunogen N2; also called hybridoma 6B5B11C10) VH: EVQLQQSGTVLARPGASVKMSCKASGYIFTSYWVHWVKQRPGQGLEWIGGFYPGNSDSRYNQKFKGKATLTAVTSASTAYMDLSSLTNEDSAVYFCTRRDSPQYWGQGTTLTVSS VL: DVLMTQTPLSLPVSLGDQASISCRSSQSIVHSNGNTYLEWYLQKPGQSPKLLIYKVSNRFSGVPDRFSGSGSGTDFTLKISRLEAEDLGVYYCFQGSHVPFTFGGGTKLEIK | 6.4 nM
3 | murine anti-hPG MAb4 (antibody, V domains shown, Murine N-terminal anti-hPG monoclonal antibody, immunogen N2; also called hybridoma 20D2C3G2) VH: QVQLQQSGAELMKPGASVKISCKATGYTFSSSWIEWLKQRPGHGLEWIGEFLPGSGSTDYNEKFKGKATFTADTSSDTAYMLLSSLTSEDSAVYYCATDGNYDWFAYWGQGTLVTVSA VL: DLVMTQTPLSLPVSLGDQASISCRSSQSLVHSSGVTYLHWYLQKPGQSPKLLIYKVSNRFSGVPDRFSGSGSGTDFTLKISRVEAEDLGVYFCSQSTHVPPTFGSGTKLEIK | 3.5 nM
4 | murine anti-hPG MAb8 (antibody, V domains shown, Murine C-terminal anti-hPG monoclonal antibody, immunogen C1; also called hybridoma 1C10D3B9) VH: EVQLVESGGGLVKPGGSLKLSCAASGFTFTTYAMSWVRQTPEKRLEWVATISSGGTYTYYPDSVKGRFTISRDNAKNALYLQMSSLRSEDTAMYYCATQGNYSLDFWGQGTSLTVSS VL: DIVMTQAASSNPVTLGTSASISCRSSKSLRHTKGITFLYWYLQKPGQSPQLLIYQMSNLASGVPDRFSSSGSGTDFTLRISRVEAEDLGVYYCAQNLELPLTFGAGTKLELK | 0.1 nM and 0.108 nM
5 | murine anti-hPG MAb13 (antibody, V domains shown, Murine C-terminal anti-hPG monoclonal antibody, immunogen C1; also called hybridoma 2C6C3C7) VH: EVQLVESGGGLVQPGGSLKLSCAASGFIFSSYGMSWVRQSPDRRLELVASINTFGDRTYYPDSVKGRFTISRDNAKNTLYLQMTSLKSEDTAIYYCARGTGTYWGQGTTLTVSS VL: not shown | 0.6 nM and 0.612 nM
6 | murine anti-hPG MAb16 (antibody, V domains shown, Murine N-terminal anti-hPG monoclonal antibody, immunogen N2; also called hybridoma 1E9D9B6) VH: QVQLQQSGAELVKPGASVKLSCKASGYTFTSYYMYWVKQRPGQGLEWIGEINPSNGGTNFNEKFKSKATLTVDKSSSTAYMQLSSLTSEDSAVYYCTRGGYYPFDYWGQGTTLTVSS VL: not shown | 0.2 nM and 0.278 nM
